Measured values: the Human Domainome abundance scans (Beltran et al. 2025)
± gives the uncertainty stated by the source.

B1: RAS guanyl-releasing protein 1, residues 539 to 593; numbered along this chain, O95267 (parent)
chain: GFPHNFQETTYLKPTFCDNCAGFLWGVIKQGYRCKDCGMNCHKQCKDLVVFECKK

Variants of: B1
Test: abundance fitness (aPCA) (normalised: wild type 0, dead -1); higher = more abundant; growth selection in yeast, the domain comes from the species named
Details: Homo sapiens
Work on GFPHNFQETTYLKPTFCDNCAGFLWGAIKQGYRCKDCGMNCHKQCKDLVVFECKK [V27A] yielded an abundance fitness of -0.102 ± 0.12.
For GFPHNFQETTYLKPTFCDNCAGFLWGEIKQGYRCKDCGMNCHKQCKDLVVFECKK [V27E], the abundance fitness was -0.17 ± 0.1.
Variant GFPHNFQETTYLKPTFCDNCAGFLWGVIKQGYRCKDCGMNCHKQCKDLVVFECKT [K55T] has an abundance fitness of -0.271 ± 0.16.
GFPHNFQETTYLKPTFCDNCAGFLWGVIKNGYRCKDCGMNCHKQCKDLVVFECKK [Q30N] showed an abundance fitness of -0.495 ± 0.15.
For GFPHNFQETTYLKPTFCDNCAGFLWGVIKQGYRCKDCGMNCHKQVKDLVVFECKK [C45V], the abundance fitness was -0.621 ± 0.068.
For GFPHNFQETTYLKPTFCDNCAGFDWGVIKQGYRCKDCGMNCHKQCKDLVVFECKK [L24D], the abundance fitness was -0.709 ± 0.31.
Work on GFPHNFQETTYLKPTFCDNCAGFLWGVIKQGYRCKDCGMNCHKQCKDLVLFECKK [V50L] yielded an abundance fitness of 0.07 ± 0.079.
With GFPHNFQETTYLKGTFCDNCAGFLWGVIKQGYRCKDCGMNCHKQCKDLVVFECKK [P14G] the abundance fitness was -0.449 ± 0.07.
GFPHNFQETTYLKFTFCDNCAGFLWGVIKQGYRCKDCGMNCHKQCKDLVVFECKK [P14F] showed an abundance fitness of -0.364 ± 0.18.
With GFPHNFQETTYLKPTFCDNCAGFLWGVIKQGYRCKMCGMNCHKQCKDLVVFECKK [D36M] the abundance fitness was -0.09 ± 0.11.
With GFPHNFQETTYLKPTFCDNCAGFLWGVIKQGYRCKLCGMNCHKQCKDLVVFECKK [D36L] the abundance fitness was -0.051 ± 0.072.
GFPHNFQETTYLKPTFCDNCAGFLWGVIKQGYRCKDCGMNCHAQCKDLVVFECKK [K43A] showed an abundance fitness of -0.049 ± 0.081.
With GFPHNFQETTYLKPTFCDNCAGFLWGVIKQGYRVKDCGMNCHKQCKDLVVFECKK [C34V] the abundance fitness was -0.723 ± 0.12.
Work on GFPHNFQETTYLKPTFCDNCAGFLWGVIKQGYRCKDVGMNCHKQCKDLVVFECKK [C37V] yielded an abundance fitness of -0.959 ± 0.098.
GFPHNFQETTYLKPTFCDNCAGFLWGVIKQGYRCKDSGMNCHKQCKDLVVFECKK [C37S] gave an abundance fitness of -0.625 ± 0.083.
Work on GFPHNFQETTYLKPTFCDNCAGFLWGVIKQGYNCKDCGMNCHKQCKDLVVFECKK [R33N] yielded an abundance fitness of 0.286 ± 0.17.
In the case of GFPHNFQETTYLKPTFCDYCAGFLWGVIKQGYRCKDCGMNCHKQCKDLVVFECKK [N19Y], the abundance fitness is reported as -0.142 ± 0.084.
In the case of GFPHNFQETTYLKPTFCDNCRGFLWGVIKQGYRCKDCGMNCHKQCKDLVVFECKK [A21R], the abundance fitness is reported as 0.053 ± 0.078.
Work on GFPHNFQETTYLKPTFCDNCPGFLWGVIKQGYRCKDCGMNCHKQCKDLVVFECKK [A21P] yielded an abundance fitness of -0.116 ± 0.078.
GFPHNFQETQYLKPTFCDNCAGFLWGVIKQGYRCKDCGMNCHKQCKDLVVFECKK [T10Q] showed an abundance fitness of -0.357 ± 0.093.
Work on GFPHNFQETTYLKPTFCDNCAGFLWGVIKQGYRCKDCGMNCHKQCKDLGVFECKK [V49G] yielded an abundance fitness of -0.122 ± 0.084.
For GFPHNFQETTYLKPTFCDNCAGFLWGVIKQGYRCKDCGMNCHKQCKDLRVFECKK [V49R], the abundance fitness was 0.094 ± 0.1.
With GFPHNFQETTYLKPTFCDNCAGFLWGVIKQGYRCKDCGMNCHKQCKDLAVFECKK [V49A] the abundance fitness was 0.041 ± 0.086.
With GFPHNFQETTYLKPTFCDNCAGFLWGVIKQGYRCIDCGMNCHKQCKDLVVFECKK [K35I] the abundance fitness was -0.009 ± 0.049.
Work on GFPHNFQETTYLKPTFCDNCAGRLWGVIKQGYRCKDCGMNCHKQCKDLVVFECKK [F23R] yielded an abundance fitness of -0.242 ± 0.088.
GFPHNFQETTYLKPTFCDNCAGFLWGVIDQGYRCKDCGMNCHKQCKDLVVFECKK [K29D] showed an abundance fitness of -0.618 ± 0.21.
EFPHNFQETTYLKPTFCDNCAGFLWGVIKQGYRCKDCGMNCHKQCKDLVVFECKK [G1E] showed an abundance fitness of 0.003 ± 0.1.
Work on DFPHNFQETTYLKPTFCDNCAGFLWGVIKQGYRCKDCGMNCHKQCKDLVVFECKK [G1D] yielded an abundance fitness of 0.188 ± 0.13.
For GFPHNFQETTYLKPTFCDNCAGFLWGVIKQGYRCKDCGMNCHKQCKDLVVFECFK [K54F], the abundance fitness was -0.228 ± 0.092.
With GFPHNFQETTYLKPTFCDNCAGFLWGVIKQGYRCKDCGKNCHKQCKDLVVFECKK [M39K] the abundance fitness was -0.079 ± 0.055.
GFPHNFQETTYLKPTFCDNCAGFLWGVIKQGYRCKDCGNNCHKQCKDLVVFECKK [M39N] gave an abundance fitness of -0.15 ± 0.049.
In the case of GFPHNFQETTYLKPTFCDNCAGFLWGVIKQPYRCKDCGMNCHKQCKDLVVFECKK [G31P], the abundance fitness is reported as -1.08 ± 0.37.
Variant GFPHNFQETTYLKPTFCDNCAGFLWGVIKQGYRCKDCGMNLHKQCKDLVVFECKK [C41L] has an abundance fitness of -0.023 ± 0.061.
GFPHWFQETTYLKPTFCDNCAGFLWGVIKQGYRCKDCGMNCHKQCKDLVVFECKK [N5W] gave an abundance fitness of -0.14 ± 0.083.
GFPHNFQETTYLKPTFCDNCAGFLWGVQKQGYRCKDCGMNCHKQCKDLVVFECKK [I28Q] showed an abundance fitness of -0.462 ± 0.17.
GFPHNFQETTYLKPTFCDNCAGFLWGVIKQGYRCKDCGMNCHKQCKDAVVFECKK [L48A] showed an abundance fitness of 0.023 ± 0.048.
Variant GFPHNFQETTYLKPTFCDNCAGFLWGVIKQGYRCKDCGMNCHKQCKDCVVFECKK [L48C] has an abundance fitness of 0.069 ± 0.12.
Work on GFPHNFQETTYLKPTFCGNCAGFLWGVIKQGYRCKDCGMNCHKQCKDLVVFECKK [D18G] yielded an abundance fitness of -0.294 ± 0.086.
With GFPHNFQETTYLKPTFCMNCAGFLWGVIKQGYRCKDCGMNCHKQCKDLVVFECKK [D18M] the abundance fitness was -0.079 ± 0.096.
In the case of GFPHNFQETTYLKPTFCDNCAGFLWGVIKQGYRCKDCGMNCHKQCKCLVVFECKK [D47C], the abundance fitness is reported as 0.212 ± 0.097.
GFPHNTQETTYLKPTFCDNCAGFLWGVIKQGYRCKDCGMNCHKQCKDLVVFECKK [F6T] showed an abundance fitness of -0.436 ± 0.14.
Variant GFPHNHQETTYLKPTFCDNCAGFLWGVIKQGYRCKDCGMNCHKQCKDLVVFECKK [F6H] has an abundance fitness of -0.319 ± 0.091.
Variant GFPHNFQETTYLKPTFCDNCAGFLWGVIKQGYRCKDCGMNCHKYCKDLVVFECKK [Q44Y] has an abundance fitness of 0.128 ± 0.052.
Work on GFPHNFQETTYLKPTFMDNCAGFLWGVIKQGYRCKDCGMNCHKQCKDLVVFECKK [C17M] yielded an abundance fitness of -0.578 ± 0.1.
In the case of GFPYNFQETTYLKPTFCDNCAGFLWGVIKQGYRCKDCGMNCHKQCKDLVVFECKK [H4Y], the abundance fitness is reported as -0.716 ± 0.3.
GFPHNFQETTYLKPTFCDNCAGFLWGVIKQGYRCKDCSMNCHKQCKDLVVFECKK [G38S] showed an abundance fitness of -0.02 ± 0.064.
Work on GFPHNFQETTYLKPTFCDNCAGFLWGVIKQGYRCKDCYMNCHKQCKDLVVFECKK [G38Y] yielded an abundance fitness of -0.514 ± 0.23.
Work on GFPHNFQETTYPKPTFCDNCAGFLWGVIKQGYRCKDCGMNCHKQCKDLVVFECKK [L12P] yielded an abundance fitness of -0.149 ± 0.09.
